Test results taken from patent US11207340B2, “Tumor suppressor TET1 and uses thereof” (The Chinese University of Hong Kong, priority 2017, dated 2021).
Entries after “also recorded” stand apart in the source; their conditions may differ.

What was measured:
Format in all cases: cell-based, human
TET1 = experiment: Demethylation treatment of silenced tumor cell lines: TET1 expression by semi-quantitative RT-PCR; conditions: 10 μmol/L Aza 3 days, alone or combined with HDAC inhibitor; nasopharyngeal, esophageal, colon, breast and renal tumor cell lines with methylated TET1
Text: Human tumor cell lines of multiple tissue types were used^50-55, including nasopharyngeal (NPC), esophageal squamous cell (ESCC), lung, gastric, colorectal (CRC), hepatocellular (HCC), breast, cervical, renal (RCC), bladder and prostate carcinomas, melanoma, as well as non-Hodgkin (NHL), Hodgkin (HL) and nasal natural killer (NK)/T-cell (NKTCL) lymphomas. Immortalized, non-transformed normal epithelial cell lines were used as “normal” controls. Cell lines were obtained from either American Type Culture Collection or collaborators. When needed, cell lines were treated with 10 μmol/L 5-aza-2′-deoxycytidine (Aza) (Sigma-aldrich, St Louis, Mo.) for 3 days, without or with further treatment with 100 nmol/trichostatin A (TSA) (Cayman Chemical Co., Ann Arbor, Mich.) for additional ˜16 h as previously^50,53. Normal adult and fetal tissue RNA and DNA samples were purchased commercially (Stratagene, La Jolla, Calif.; Millipore-Chemicon, Billerica, Mass.). […]
(§1) Semi-quantitative RT-PCR and quantitative real-time PCR were performed as described before^50,53, with GAPDH as a control for all the samples shown in previous publications^31,51,52. qRT-PCR was carried out according to the manufacturer's protocol (HT7900 system; applied Biosystems), with SYBR Green master mix (applied Biosystems) used.

TET1 promoter = experiment: Demethylation treatment of silenced tumor cell lines: TET1 promoter methylation by MSP and BGS; conditions: for TET1 promoter demethylation (unmethylated promoter alleles) by MSP: 10 μmol/L Aza 3 days, without or with TSA ~16 h, silenced tumor cell lines
Text: Human tumor cell lines of multiple tissue types were used^50-55, including nasopharyngeal (NPC), esophageal squamous cell (ESCC), lung, gastric, colorectal (CRC), hepatocellular (HCC), breast, cervical, renal (RCC), bladder and prostate carcinomas, melanoma, as well as non-Hodgkin (NHL), Hodgkin (HL) and nasal natural killer (NK)/T-cell (NKTCL) lymphomas. Immortalized, non-transformed normal epithelial cell lines were used as “normal” controls. Cell lines were obtained from either American Type Culture Collection or collaborators. When needed, cell lines were treated with 10 μmol/L 5-aza-2′-deoxycytidine (Aza) (Sigma-aldrich, St Louis, Mo.) for 3 days, without or with further treatment with 100 nmol/trichostatin A (TSA) (Cayman Chemical Co., Ann Arbor, Mich.) for additional ˜16 h as previously^50,53. Normal adult and fetal tissue RNA and DNA samples were purchased commercially (Stratagene, La Jolla, Calif.; Millipore-Chemicon, Billerica, Mass.). DNA samples of primary carcinomas, nose swab from suspected NPC patients, as well as surgical margin normal tissues, have been described previously^31,51,52.
(§2) CpG island (CGI) analysis for TET1 promoter and exon 1 was performed using CpG island Searcher (http//ccnt.hsc.usc.edu/cpgislands2). Bisulfite modification of genomic DNA was carried out as described previously^56,57. For MSP analysis, approximately 50 ng of bisulfited DNA for each sample was amplified with methylation- or unmethylation-specific primer set, according to previously reported MSP protocol^58. Bisulfite-treated DNA was also amplified using a set of BGS primers, then cloned into pCR4-TOPO vector (Invitrogen, Carlsbad, Calif.), with 8-10 clones randomly picked and sequenced.

NPC tumor cells (HONE1) = experiment: TUNEL assay; conditions: compared with vector or TET1-CD-mut controls
Procedure: Cells cultured on coverslips were fixed with 4% paraformaldehyde, and permeabilized with 0.1% triton X-100. TUNEL (Terminal deoxynucleotidyl transferase dUTP nick end labeling) staining was performed using the In Situ Cell Death Detection Kit (Roche, Mannheim, Germany).

[1] = tested on: HOXA9, SLIT2 and ZNF382 promoters; experiment: TSG promoter methylation by MSP in TET1-CD-expressing tumor cells
Procedure: as §2
(§3) Human TET1 catalytic domain (TET1-CD) cDNA and its catalytic domain mutant (TET1-CD-mut) clones (Addgene, Cambridge, Mass.) were used as templates to generate TET1 constructs with an N-terminal Flag tag, and subcloned into pcDNA3.1 vector (Invitrogen, Carlsbad, Calif.). Cells were cultured overnight in a 12-well plate and transfected with empty vector or TET1-CD, TET1-CD-mut-expressing plasmids using Lipofectamine 2000 (Invitrogen, Carlsbad, Calif.). Forty-eight hours later, transfectants were replated in triplicate and cultured for 10-15 days in complete medium containing G418. Surviving colonies were stained with crystal violet (0.5% w/v) after methanol fixation, with visible colonies (≥50 cells) counted.

[2] = tested on: HOXA9, HOXA5, PCDH7, TCF4, MEIS1, SLIT2 and ZNF382; experiment: TSG expression by semi-quantitative RT-PCR and qRT-PCR in TET1-CD-expressing carcinoma cells
Procedure: as §1, §3

[3] = tested on: NPC, ESCC, gastric, colon and breast tumor cells; experiment: Colony formation assay of tumor cells; conditions: ectopic expression
Procedure: as §3

Molecule	TET1 expression after treatment (TET1)	TET1 promoter demethylation (unmethylated promoter alleles) by MSP (TET1 promoter)	TET1 promoter demethylation (unmethylated promoter alleles) by MSP (TET1 promoter; listed as Aza)	TET1 promoter CpG sites by BGS analysis (TET1 promoter; after Aza treatment, alone or combined with HDAC inhibitor)	numbers of apoptotic cells (NPC tumor cells (HONE1))	methylated alleles of HOXA9, SLIT2 and ZNF382 promoters [1]	unmethylated promoter alleles of HOXA9, SLIT2 and ZNF382 [1]	TSG expression at mRNA levels (HOXA9, HOXA5, PCDH7, TCF4, MEIS1, SLIT2, ZNF382) [2]	tumor cell clonogenicity, % of control cells ([3]; NPC, ESCC, gastric, colon and breast tumor cells, vs control cells)	suppression of tumor cell clonogenicity / growth ([3]; colony formation assays of tumor cells of multiple tissue types)
Nc1ncn([C@H]2C[C@H](O)[C@@H](CO)O2)c(=O)n1 [5-aza-dC, 5-aza-2′-deoxycytidine]	restoration	increased	demethylated	dramatically demethylated						
TET1-CD: Human TET1 catalytic domain (Cys-rich and DSBH regions), N-terminal Flag tag, expressed from pcDNA3.1 plasmid; SEQ ID NO:6 (protein, listed as Homo sapiens, N-terminal Flag tag) ELPTCSCLDRVIQKDKGPYYTHLGAGPSVAAVREIMENRYGQKGNAIRIEIVVYTGKEGKSSHGCPIAKWVLRRSSDEEKVLCLVRQRTGHHCPTAVMVVLIMVWDGIPLPMADRLYTELTENLKSYNGHPTDRRCTLNENRTCTCQGIDPETCGASFSFGCSWSMYFNGCKFGRSPSPRRFRIDPSSPLHEKNLEDNLQSLATRLAPIYKQYAPVAYQNQVEYENVARECRLGSKEGRPFSGVTACLDFCAHPHRDIHNMNNGSTVVCTLTREDNRSLGVIPQDEQLHVLPLYKLSDTDEFGSKEGMEAKIKSGAIEVLAPRRKKRTCFTQPVPRSGKKRAAMMTEVLAHKIRAVEKKPIPRIKRKNNSTTTNNSKPSSLPTLGSNTETVQPEVKSETEPHFILKSSDNTKTYSLMPSAPHPVKEASPGFSWSPKTASATPAPLKNDATASCGFSERSSTPHCTMPSGRLSGANAAAADGPGISQLGEVAPLPTLSAPVMEPLINSEPSTGVTEPLTPHQPNHQPSFLTSPQDLASSPMEEDEQHSEADEPPSDEPLSDDPLSPAEEKLPHIDEYWSDSEHIFLDANIGGVAIAPAHGSVLIECARRELHATTPVEHPNRNHPTRLSLVFYQHKNLNKPQHGFELNKIKFEAKEAKNKKMKASEQKDQAANEGPEQSSEVNELNQIPSHKALTLTHDNVVTVSPYALTHVAGPYNHWV					significantly increased; also recorded: induced	decreased	increased	Mild upregulation; also recorded: upregulated	40-50%	inhibited
